Measurements taken from US20100240040A1, “METHOD FOR SCREENING FOR SELECTIVE MODULATOR OF THE NF-KB PATHWAY ACTIVATION” (INSTITUT PASTEUR, priority 2007, published 2010).

Target: T1, Biot-CC2-LZ (Mus musculus, UniProt O88522)
T1 construct: made in house; host or cells: chemical synthesis
Test: HTRF assay, complex with Biot-CC2-LZ (negative and positive controls)
Format: binding
Settings: 50 nM His-tagged protein with 50 nM Biot-CC2-LZ, Strept-Eu 2 nM, AntiHis-XL 7 nM
Excerpt: The Homogeneous Time Resolved Fluorescence (HTRF®) assay reagents anti-(His)6 monoclonal antibody labeled with XL665 (MABHis6-XL) and streptavidin-Europium cryptate (streptavidin-EuK) were purchased from CIS-Bio. The His-CC2-LZ peptide (SEQ ID NO: 30 and 31) was purified as described in Agou et al., 2004a and the biotin tagged CC2-LZ peptide (SEQ ID NO: 28 and 29) was chemically synthezised as described in Wyler et al., 2007.
In HTRF experiments, the pure His-CC2-LZ protein was labeled by anti-His-XL665 mAb and biot-CC2-LZ was labeled by streptavidin-EuK. Dimerization of His-CC2-LZ and Biot-CC2-LZ leads the donor (Steptavidin-EuK) and the acceptor (anti-His-XL665) into close proximity. Upon excitation of Europium cryptate at 320 nm, FRET occurs between these two fluorophores, and XL665 re-emits a specific long-lived fluorescence at 665 nm.
All experiments were carried out in a black microplate Greiner (200 μl) at 25° C. The excitation wavelength was 320 nm and the fluorescence emissions were measured at 620 nm and at 665 nm to normalize the specific signal. Fluorescence emission was recorded at both wavelengths after an 50 μs delay, which reduces background noise introduced by the media and the free acceptor molecules. The FRET signal is calculated using the following equation:
ΔF=[(R−Rneg)/Rneg]*100 (1) […]

B1: His-CC2-LZ: six his-tagged CC2-LZ peptide, recombinant, SEQ ID NO: 30 (humanised 31) (protein)
chain: MGSHHHHHHSSGLVPRGSHMASLEDLRQQLQQAEEALVAKQELIDKLKEEAEQHKIVMETVPVLKAQADIYKADFQAERHAREKLVEKKEYLQEQLEQLQREFNKL
FRET (ΔF %): ≦0%
